According to patent US20020197661:

Biological target: T1, Acetyl-Prolyl-Arginyl-Asparaginyl-Lysyl-aminoacetamide coumarin (Ac-PRNK-ACC)
T1 chain: PRNK

B1: bovine factor Xa protease (Promega) (protein)
chain: ANSFLEEVKQGNLERECLEEACSLEEAREVFEDAEQTDEFWSKYKDGDQCEGHPCLNQGHCKDGIGDYTCTCAEGFEGKNCEFSTREICSLDNGGCDQFCREERSEVRCSCAHGYVLGDDSKSCVSTERFPCGKFTQGRSRRWAIHTSEDALDASELEHYDPADLSPTESSLDLLGLNRTEPSAGEDGSQVVRIVGGRDCAEGECPWQALLVNEENEGFCGGTILNEFYVLTAAHCLHQAKRFTVRVGDRNTEQEEGNEMAHEVEMTVKHSRFVKETYDFDIAVLRLKTPIRFRRNVAPACLPEKDWAEATLMTQKTGIVSGFGRTHEKGRLSSTLKMLEVPYVDRSTCKLSSSFTITPNMFCAGYDTQPEDACQGDSGGPHVTRFKDTYFVTGIVSWGEGCARKGKFGVYTKVSNFLKWIDKIMKARAGAAGSRGHSEAPATWTVPPPLPL
  cleavage of the fluorogenic substrate (fluorescence, excitation 355 nm, emission 460 nm): Ac-PRNK-ACC (SEQ. ID. NO: 12) is a specific substrate for tryptase in relation to other blood borne serine proteases
